According to patent US20250018038A1 (UNIVERSITY OF CHICAGO, published 2025):

Biological target: T1, Survivin (purified recombinant Survivin protein) (human, UniProt O15392 1-140, limits assumed, biotinylated on the Avi-tag by BirA (antigens for selection and ELISA))
T1 construct: also called Baculoviral IAP repeat-containing protein 5; BIRC5
Assay: multipoint protein ELISA: 50 nM immobilised target, 3-fold serial dilutions of purified Fab, protein L-HRP, sigmoidal fit
Protocol: Protein based multipoint ELISA was performed to estimate the affinity of the generated unique Fabs to their cognate antigens. A fixed concentration of the immobilized target (50 nM) on ELISA plate was incubated with 3-fold serial dilutions of the purified Fabs starting from […] for 15 min. The plates were washed and the bound antigen-Fab complexes were incubated with H1RP-conjugated protein L (1:5000 dilution in PBST). As with phage ELISA, the plates were again washed, developed with TMB substrate and quenched with 1.0 M HCl, and absorbance (A450) was determined. To determine the affinity, the data were fitted in a non-linear sigmoidal function with variable slope in GraphPad PRISM and EC50 value was calculated (FIG. 2).

T1 sequence (O15392 1-140 limits assumed): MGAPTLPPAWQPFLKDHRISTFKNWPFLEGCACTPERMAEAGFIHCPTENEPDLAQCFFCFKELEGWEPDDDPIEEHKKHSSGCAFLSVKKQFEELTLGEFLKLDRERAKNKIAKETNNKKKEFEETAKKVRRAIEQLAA

B1: SUR-N-53 (Fab, V domains shown)
VH: EVQLVESGGGLVQPGGSLRLSCAASGFNVSSSYIHWVRQAPGKGLEWVASIYSYYGSTSYADSVKGRFTISADTSKNTAYLQMNSLRAEDTAVYYCARSFTEKWAYSWAIDYWGQGTLVTVSS
VL: DIQMTQSPSSLSASVGDRVTITCRASQSVSSAVAWYQQKPGKAPKLLIYSASSLYSGVPSRFSGSRSGTDFTLTISSLQPEDFATYYCQQYAWSLFTFGQGTKVEIKR
notes: also called SUR-N-53 Fab
EC50: 100 nM

B2: SUR-FL-47 (Fab, V domains shown)
VH: EVQLVESGGGLVQPGGSLRLSCAASGFNVSYSSIHWVRQAPGKGLEWVASIYSYYGYTSYADSVKGRFTISADTSKNTAYLQMNSLRAEDTAVYYCARWPHYWGQGVSSMDYWGQGTLVTVSS
VL: DIQMTQSPSSLSASVGDRVTITCRASQSVSSAVAWYQQKPGKAPKLLIYSASSLYSGVPSRFSGSRSGTDFTLTISSLQPEDFATYYCQQSYYFPVTFGQGTKVEIKR
notes: also called SUR-FL-47 Fab
EC50: 29 nM

B3: SUR-FL-24 (Fab, V domains shown)
VH: EVQLVESGGGLVQPGGSLRLSCAASGFNFYSSSIHWVRQAPGKGLEWVASIYPYYSSTSYADSVKGRFTISADTSKNTAYLQMNSLRAEDTAVYYCARWYHYYSVQQYGLDYWGQGTLVTVSS
VL: DIQMTQSPSSLSASVGDRVTITCRASQSVSSAVAWYQQKPGKAPKLLIYSASSLYSGVPSRFSGSRSGTDFTLTISSLQPEDFATYYCQQSTSFPITFGQGTKVEIKR
notes: also called SUR-FL-24 Fab
EC50: 18 nM

B4: SUR-N-28 (Fab, V domains shown)
VH: EVQLVESGGGLVQPGGSLRLSCAASGFNFSSSYIHWVRQAPGKGLEWVASIYSSYGYTSYADSVKGRFTISADTSKNTAYLQMNSLRAEDTAVYYCARSYYYQYSGGWRGYYHALDYWGQGTLVTVSS
VL: DIQMTQSPSSLSASVGDRVTITCRASQSVSSAVAWYQQKPGKAPKLLIYSASSLYSGVPSRFSGSRSGTDFTLTISSLQPEDFATYYCQQSSSSLITFGQGTKVEIKR
notes: also called SUR-N-28 Fab
EC50: 3 nM

B5: SUR-FL-31 (Fab, V domains shown)
VH: EVQLVESGGGLVQPGGSLRLSCAASGFNFSSSSIHWVRQAPGKGLEWVASISSYSGYTYYADSVKGRFTISADTSKNTAYLQMNSLRAEDTAVYYCARGKQKSYGQWYFYYWAIDYWGQGTLVTVSS
VL: DIQMTQSPSSLSASVGDRVTITCRASQSVSSAVAWYQQKPGKAPKLLIYSASSLYSGVPSRFSGSRSGTDFTLTISSLQPEDFATYYCQQSSSSLITFGQGTKVEIKR
notes: also called SUR-FL-31 Fab
EC50: 2 nM

B6: SUR-FL-23 (Fab, V domains shown)
VH: EVQLVESGGGLVQPGGSLRLSCAASGFNFSSSSIHWVRQAPGKGLEWVASISSYSSSTSYADSVKGRFTISADTSKNTAYLQMNSLRAEDTAVYYCARYMVSMWSYSWYVKWYAMDYWGQGTLVTVSS
VL: DIQMTQSPSSLSASVGDRVTITCRASQSVSSAVAWYQQKPGKAPKLLIYSASSLYSGVPSRFSGSRSGTDFTLTISSLQPEDFATYYCQQSSSSLITFGQGTKVEIKR
notes: also called SUR-FL-23 Fab
EC50: 1 nM

B7: SUR-FL-26 (Fab, V domains shown)
VH: EVQLVESGGGLVQPGGSLRLSCAASGFNVSYSSIHWVRQAPGKGLEWVASISPYYGYTYYADSVKGRFTISADTSKNTAYLQMNSLRAEDTAVYYCARWYFEYPYYMWGLDYWGQGTLVTVSS
VL: DIQMTQSPSSLSASVGDRVTITCRASQSVSSAVAWYQQKPGKAPKLLIYSASSLYSGVPSRFSGSRSGTDFTLTISSLQPEDFATYYCQQSYKPPITFGQGTKVEIKR
notes: also called SUR-FL-26 Fab
EC50: < 1 nM

B8: SUR-N-09 (Fab, V domains shown)
VH: EVQLVESGGGLVQPGGSLRLSCAASGFNFYYSSIHWVRQAPGKGLEWVASISPYSGYTSYADSVKGRFTISADTSKNTAYLQMNSLRAEDTAVYYCARYMYYGWALDYWGQGTLVTVSS
VL: DIQMTQSPSSLSASVGDRVTITCRASQSVSSAVAWYQQKPGKAPKLLIYSASSLYSGVPSRFSGSRSGTDFTLTISSLQPEDFATYYCQQGQWWGLITFGQGTKVEIKR
notes: also called SUR-N-09 Fab
EC50: 30 nM
